Test results taken from patent US20030082746.

T1: pro-transglutaminase derived from S. mobaraense IFO13819 (transglutaminase having the pro-structure part)
T1 sequence: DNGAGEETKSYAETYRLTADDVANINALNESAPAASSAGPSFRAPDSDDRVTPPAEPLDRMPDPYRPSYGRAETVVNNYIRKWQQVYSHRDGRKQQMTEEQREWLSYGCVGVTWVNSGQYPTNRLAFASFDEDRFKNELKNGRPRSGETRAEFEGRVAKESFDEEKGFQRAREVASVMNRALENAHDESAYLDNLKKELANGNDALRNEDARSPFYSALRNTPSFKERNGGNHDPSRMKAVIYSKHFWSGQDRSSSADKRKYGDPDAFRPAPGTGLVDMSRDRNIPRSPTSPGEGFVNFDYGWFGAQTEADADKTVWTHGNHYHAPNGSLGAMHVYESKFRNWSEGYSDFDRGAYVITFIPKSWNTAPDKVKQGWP

T2: Suc-AAPF-pNA
T2 chain: AAPF

T3: AAP-pNA
T3 chain: AAP

T4: RP-pNA
T4 chain: RP

T5: AAPL-pNA
T5 chain: AAPL

T6: FRAP-pNA
T6 chain: FRAX

T7: AAF-pNA
T7 chain: AAF

T8: GP-βNA
T8 chain: GP

T9: pro-transglutaminase derived from S. mobaraense IFO13819 (transglutaminase having the pro-structure part)
T9 chain: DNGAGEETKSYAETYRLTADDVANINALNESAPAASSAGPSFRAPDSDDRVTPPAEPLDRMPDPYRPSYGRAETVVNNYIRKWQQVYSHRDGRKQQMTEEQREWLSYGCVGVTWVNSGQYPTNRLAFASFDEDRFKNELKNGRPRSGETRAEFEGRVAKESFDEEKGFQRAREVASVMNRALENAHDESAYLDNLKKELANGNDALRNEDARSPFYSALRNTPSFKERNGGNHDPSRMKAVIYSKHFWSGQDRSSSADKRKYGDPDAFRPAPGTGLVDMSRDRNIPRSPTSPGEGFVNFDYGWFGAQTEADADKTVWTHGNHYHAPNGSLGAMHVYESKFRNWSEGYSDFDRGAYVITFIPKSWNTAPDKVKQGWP

T10: Z-GP-βNA
T10 chain: GP

T11: SFRAP-pNA
T11 chain: SFRAP

T12: Bz-FVR-pNA
T12 chain: FVR

T13: DP-pNA
T13 chain: DP

T14: AFP-pNA
T14 chain: AFP

T15: AAA-pNA
T15 chain: AAA

T16: AP-pNA
T16 chain: AP

T17: Z-GAP-βNA
T17 chain: GAP

T18: Z-AGP-βNA
T18 chain: AGP

T19: PSFRAP-pNA
T19 chain: PSFRAP

B1: proline specific peptidase (svPEP) produced by S. mobaraense IFO13819 (protein)
chain: QADIKDRILKIPGMKFVEEKPYQGYRYLVMTYRQPVDHRNPGKGTFEQRFTLLHKDTDRPTVFFTSGYNVSTNPSRSEPTRIVDGNQVSMEYRFFTPSRPQPADWSKLDIWQAASDQHRLYQALKPVYGKNWLATGGSKGGMTATYFRRFYPNDMNGTVAYVAPNDVNDKEDSAYDKFFQNVGDKACRTQLNSVQREALVRRDEIVARYEKWAKENGKTFKVVGSADKAYENVVLDLVWSFWQYHLQSDCASVPATKASTDELYKFIDDISGFDGYTDQGLERFTPYYYQAGTQLGAPTVKNPHLKGVLRYPGINQPRSYVPRDIPMTFRPGAMADVDRWVREDSRNMLFVYGQNDPWSGEPFRLGKGAAARHDYRFYAPGGNHGSNIAQLVADERAKATAEVLKWAGVAPQAVQKDEKAAKPLAPFDAKLDRVKNDKQSALRP

How the values were obtained:
[1] = system: T1, pro-transglutaminase derived from S. mobaraense IFO13819 (transglutaminase having the pro-structure part)
Suc-AAPF-pNA = target: T2, Suc-AAPF-pNA
AAP-pNA = target: T3, AAP-pNA
RP-pNA = target: T4, RP-pNA
AAPL-pNA = target: T5, AAPL-pNA
FRAP-pNA = target: T6, FRAP-pNA
AAF-pNA = target: T7, AAF-pNA
GP-βNA = target: T8, GP-βNA
[2] = target: T9, pro-transglutaminase derived from S. …
Z-GP-βNA = target: T10, Z-GP-βNA
SFRAP-pNA = target: T11, SFRAP-pNA
Bz-FVR-pNA = target: T12, Bz-FVR-pNA
DP-pNA = target: T13, DP-pNA
AFP-pNA = target: T14, AFP-pNA
AAA-pNA = target: T15, AAA-pNA
AP-pNA = target: T16, AP-pNA
Z-GAP-βNA = target: T17, Z-GAP-βNA
Z-AGP-βNA = target: T18, Z-AGP-βNA
PSFRAP-pNA = target: T19, PSFRAP-pNA

Row | Molecule | cleavage of the pro-transglutaminases by Dispase digestion (SDS-PAGE) [1] | relative activity (%) (Suc-AAPF-pNA) | relative activity (%) (AAP-pNA) | relative activity (%) (RP-pNA) | relative activity (%) (AAPL-pNA) | relative activity (%) (FRAP-pNA) | relative activity (%) (AAF-pNA) | relative activity (%) (GP-βNA) | N-terminal amino acid sequence of the cleaved transglutaminase (SAMP45 and svPEP co-secreted) [2] | relative activity (%) (Z-GP-βNA) | relative activity (%) (SFRAP-pNA) | relative activity (%) (Bz-FVR-pNA) | relative activity (%) (DP-pNA) | relative activity (%) (AFP-pNA) | relative activity (%) (AAA-pNA) | relative activity (%) (AP-pNA) | relative activity (%) (Z-GAP-βNA) | relative activity (%) (Z-AGP-βNA) | relative activity (%) (PSFRAP-pNA)
1 | Dispase (Boeringer Manheim Co. Ltd.) | the cleavage of the pro-transglutaminases was confirmed by SDS-PAGE | – | – | – | – | – | – | – | – | – | – | – | – | – | – | – | – | – | –
2 | B1 | – | 0.01 | 100 | 0.94 | 0.3 | 49 | 4.1 | 0.4 | it had the same sequence as the naturally occurring transglutaminase derived from S. mobaraense having Asp as the N-terminal amino acid | 0.04 | 1.23 | 0.002 | 0 | 26.3 | 8.5 | 0.53 | 1.2 | 0.78 | 0.2
